Assay results taken from the DeepSol protein solubility set.

Assay: soluble on expression in E. coli; label from the status in PepcDB or PDB records

Sequence | soluble on expression in E. coli
MDLELEPTLESIVQHDSLKWIFVGGKGGVGKTTTSSSVAVQLALAQPNEQFLLISTDPAHNLSDAFCQKFGKDARKVEGLPNLSCMEIDPEAAMSDLQQQASQYNNDPNDPLKSMMSDMTGSIPGIDEALSFMEVLKHIKNQKVLEGEDNSNAISYKTIIFDTAPTGHTLRFLQLPSTLEKLLSKFKDLSGKLGPMLSMMGGGQQQDIFEKLNEVQKNVSEVNEQFTNPELTTFICVCISEFLSLYETERMIQELMSYNMDVNSIVVNQLLFAEGDDHSCKRCESRWKMQKKYLDQMGELYEDYHLVKMPLLGCEIRGVENLKKFSKFLLKPYDPKADSDIVFDLEEK | soluble
MTATKQTAQVTAVADGTVVTPKGFQAAGVHAGLRYSKNDLGVILCDVPASAAAVYTQSHFQAAPLKVTQASLAVEQKLQAVIVNSACANACTGEQGLKDAYEMRELCAKQFGLALHHVAVASTGVIGEYLPMEKIRAGIEKLVPGATMADAEAFQTAILTTDTVMKRACYQTTVDGKTVTVGGAAKGSGMIHPNMATMLAFITTDANVSSPVLHAALRSITDVSFNQITVDGDTSTNDMVVVMASGLAGNDELTPDHPDWENFYEALRKTCEDLAKQIAKDGEGATKLIEVRVRGAKTDEEAKKIAKQIVGSNLVKTAVYGADANWGRIIGAIGYSDAEVNPDNVDVAIGPIVMLKGSEPQPFSEEEATAYLQQETVVIEVDLHLGDGFGVAWGCDLTYDYVKINASYRT | not soluble
MNPLFFLASPFLYLTYLIYYPNKGSFVSKPRNLQKMSSEPFKNVYLLPQTNQLLGLYTIIRNKNTTRPDFIFYSDRIIRLLVEEGLNHLPVQKQIVETDTNENFEGVSFMGKICGVSIVRAGESMEQGLRDCCRSVRIGKILIQRDEETALPKLFYEKLPEDISERYVFLLDPMLATGGSAIMATEVLIKRGVKPERIYFLNLICSKEGIEKYHAAFPEVRIVTGALDRGLDENKYLVPGLGDFGDRYYCV | not soluble
GPGSMLRRCAPLLIGVEGDTFVSAIKDKQYLAHRLAILGKEDPNFKAQCMSDDDIKRFTTSLGSAESLFNKQAGAIPTNVVDEETGRVIGSTQPDPTRYGDWEVNGRCYDF | soluble
MTADRTGHCLCGGVQIAVATVSHEIGACHCEMCRRWTGSAFVTMMVPEAAMTVTGAEHVKAYASSAWAERCFCGSCGSTLWYRLTGPGMPRDYYMAAGLLDDLSGIRLAHEIYIDRKPDAWSFAGPTHQMTEAEFLATLPASPEE | not soluble
MDIWYGTAAVPKDLDNSAVTIGVFDGVHRGHQKLINATVEKAREVGAKAIMVTFDPHPVSVFLPRRAPLGITTLAERFALAESFGIDGVLVIDFTRELSGTSPEKYVEFLLEDTLHASHVVVGANFTFGENAAGTADSLRQICQSRLTVDVIDLLDDEGVRISSTTVREFLSEGDVARANWALGRHFYVTGPVVRGAGRGGKELGFPTANQYFHDTVALPADGVYAGWLTILPTEAPVSGNMEPEVAYAAAISVGTNPTFGDEQRSVESFVLDRDADLYGHDVKVEFVDHVRAMEKFDSVEQLLEVMAKDVQKTRTLLAQDVQAHKMAPETYFLQAES | soluble
MAHHHHHHMKEHSHIIGLGDFFADAKKCWVLLASKSPRRIELMKLMGVSNLYICESGFEENLDKKQFASAEHYVKENALQKGLNVASHVWFGDQANTHSEGNVKEEETKKSTQQGSDSGHLSIGQPENEQHCTDATKKHQVKSLHSTYDPIPKVIISCDTIVTLKDEIIEKPLNKEHAREILKKLSSNIHCVYTAVCIFLHKTKVPITFIEKTDVHFDDLLEQDILEYLNSSEPYDKAGAYSIQGVGCQFIKKINGCYYNVMGLPINKLSKTLTQLCVEGKISA | soluble
MSHFLVEKLTKTVGDKTVFQDISFIIHDFDRIGIIGVNGTGKTTLLDVLSGRLGFDGDHSPFSKANDYKIAYLTQDPEFNDAASVLDTVLSADVKAIQLIRQYELLMANYTEDKQESLESLMSEMDRLDAWSIESDVKTVLSKLGITDLEQKVGDLSGGMRRRVQLAQVLLGAADLLLLDEPTNHLDIDTIAWLTTYLKTAKKTVLFITHDRYFLDHVATRIFELDKAGLTEYQGNYQDYVRLKAEQDERDAANLHKKKQLYKQELAWMRTQPQARATKQQARINRFSDLKKEVHQDSSADKLEMTFETSRIGKKVIHFEDLSFAYGDRQLIKDFNLIIQNKDRIGIVGDNGVGKSTLLNIINGDLKPTSGKLDIGDTIRVGYFSQQLKDMDETKRVINYLQEVADEVKTSVGTTSISELLEQFLFPRSSHGTLIAKLSGGEKKRLYLLKLLIEKPNVLLLDEPTNDLDIATLKVLENFLANFAGPVITVSHDRYFLDKVATKILAFEEGDIRVFYGNYSDYLDEKVFEKETVEADLAKTTVTEEVPLPQKEERKRMSYLEKQEWAQIEDKIATIEANIEEIENQMLTVVSDYGQLAQLQKELDQRNNDLLLAYERFEYLSGLDI | not soluble
GSHMASTISVKDENGTVKVPKDAKRIVVLEYSFADALAALDVKPVGIADDGKKKRIIKPVREKIGDYTSVGTRKQPNLEEISKLKPDLIIADSSRHKGINKELNKIAPTLSLKSFDGDYKQNINSFKTIAKALNKEKEGEKRLAEHDKLINKYKDEIKFDRNQKVLPAVVAKAGLLAHPNYSYVGQFLNELGFKNALSDDVTKGLSKYLKGPYLQLDTEHLADLNPERMIIMTDHAKKDSAEFKKLQEDATWKKLNAVKNNRVDIVDRDVWARSRGLISSEEMAKELVELSKKEQK | soluble
MGSDKIHHHHHHENLYFQGMSVAHENARRIISDILGKQNIERVWFVGCGGSLTGFWPGKYFLDCEASKLAVGYITSNEFVHATPKALGKNSVVILASQQGNTAETVAAARVAREKGAATIGLVYQPDTPLCEYSDYIIEYQWARYPETVDPAQQKAAYSLWLALEILAQTEGYAQYDELVSAFGRFSDVVHGAQRQVQEDAQRFAAEWKDEKVVYMMGSGPSFGAAHQESICILLEMQWINSASIHSGEYFHGPFEITEPGTPFILLQSSGRTRPLDDRAIRFIERYQGKLQLIDADKLGIQDLSTDVGEYFCGLLHNCVLDVYNLALATARNHPLTTRRYMWKVEY | soluble
MKLKIDLNCDLGEAFGNYTFGGDQHILPLITSANIACGYHAGDEDVMNETVQLAKKNNISIGAHPGLPDLKGFGRRKMDLTPNEIYNLVIYQLGALSGFCKINHVKMMHVKPHGALYQMGARNKEIAHAIAQAVFDFDSNLIFVGLANTLLISEAELVGLKVASEVFADRRYEDDGQLVSRKKTDATITNTDEAIQQALKMVLENKVVSKNGKIIDLKADTICVHGDGKHALEFVTQIRNELMKEGIDIQSLLEHHHHHH | soluble
MAILRLEPQQLYSVADLENMPCKSTKELPPIDEIVGQERAQKAVEFAMSIKEKGYNIYAIGQNGLGKRTMILRYLNRHQHDADALFDWCYVANFEDTRTPKVLKLPCGIGNKLRVDIEALMGKLLNALPLAFDNEMYFSRADRLKNQLANKQQNELDRISREAKEHGISLTITSQGDYQFVAMNGDELHTEESFDALSKKEQEQFSDSIDALEVSLRSMVRELTEWEDTYSDKIKKLNDEVTLDVITHFIKKLKVDYSEYSEIKTYLTELQKDIVENADIFLDQSGEQGEIAAASLDKKLPRRYKVNVLVSRNNSDFPIVVEENPNYHSLFGSIETATFKGTVFTDFSLIRAGSLHKANGGVLLMDAQKVLEQPYVWDGLKRALRARQLSFTSLEKEVTLTGAVSLDPEPIPLDIKIILFGDYRTYQLLQHYDPEFSELFRVTADFEDEMKRTPESELHYARFISSVVHDNNMLHCDRKAIARIIEYSSRLSGDQSKLSLHSANIANLLRESNYVARQANSNMIRIGHVEEAMKNQEMRVSRLRDSVMETFLNGTT | not soluble
MSNTVTLRADGRLFTGWTSVSVTRSIESVAGYFELGVNVPPGTDLSGLAPGKKFTLEIGGQIVCTGYIDSRRRQMTADSMKITVAGRDKTADLIDCAAVYSGGQWKNRTLEQIARDLCAPYGVTVRWELSDKESSAAFPGFTLDHSETVYEALVRASRARGVLMTSNAAGELVFSRAASTATDELVLGENLLTLDFEEDFRDRFSEYTVKGYARANGAEGDDIDAKSIVSRKGTATDSDVTRYRPMIIIADSKITAKDAQARALREQRRRLAKSITFEAEIDGWTRKDGQLWMPNLLVTIDASKYAIKTTELLVSKVTLILNDQDGLKTRVSLAPREGFLVPVESDRKNRKGGDSNGGIDALVEDYYRRHPEKTPPWKE | soluble
